Assay [1] addresses T1, Recombinant extracellular domain of human RON (rhRON) (human, UniProt Q04912).
T1 construct: recepteur d'origine nantais (RON) receptor tyrosine kinase, human, recombinant extracellular domain; also called recepteur d'origine nantais; source: bought: R&D Systems
The assay can be described thus: ELISA; rhRON (1 µg/ml) immobilised directly on 384-well plates; crude periplasmic extracts of nanobodies; detection by anti-FLAG HRP; positive if OD450 ratio to a negative control nanobody ≥2. The following applies: one partner purified. Background: In an ELISA, binding on a coated surface is turned into a signal by an enzyme label.

The target in assay [2] is T2, full-length human RON expressed on HEK293T cells (HEK293T-hRON) (Homo sapiens, UniProt Q04912).
T2 construct: also called cell-expressed RON; source: HEK293T, transiently transfected (pcDNA3.1), on cells
The assay can be described thus: flow cytometry on cells; 1/10 diluted crude periplasmic extracts on HEK293T-hRON and HEK293T cells; anti-FLAG then anti-mouse APC; positive if normalised ratio ≥2. The conditions noted are these: partners not purified.

Assay [3] concerns the target T1, Recombinant extracellular domain of …. The assay can be described thus: ELISA; ligand competition: rhRON (1 µg/ml) immobilised directly; dilution series of purified nanobodies starting at 1 µM added together with 2 nM biotinylated MSP; MSP detected by extravidin peroxidase. The following applies: both partners purified.
For assay [4] the target is unchanged. The assay can be described thus: SPR; ProteOn; rhRON immobilised on GLC chip; 1/10 diluted crude periplasmic extracts injected 2 min at 45 µl/min; Langmuir model, off-rate only. The conditions noted are these: one partner purified.
In assay [5] the target is T3, RON endogenously expressed on T-47D human breast cancer cells (Homo sapiens (T-47D cell line), UniProt Q04912). The assay can be described thus: cell-based or functional assay.
In assay [6] the target is T3, RON endogenously expressed on T-47D …. The assay can be described thus: flow cytometry on cells; dilution series of purified nanobodies starting at 500 nM on T-47D cells endogenously expressing RON; anti-FLAG then anti-mouse APC. The following applies: one partner purified. A general note: A flow cytometer gives signals particle by particle.

T1 sequence (Q04912 25-957): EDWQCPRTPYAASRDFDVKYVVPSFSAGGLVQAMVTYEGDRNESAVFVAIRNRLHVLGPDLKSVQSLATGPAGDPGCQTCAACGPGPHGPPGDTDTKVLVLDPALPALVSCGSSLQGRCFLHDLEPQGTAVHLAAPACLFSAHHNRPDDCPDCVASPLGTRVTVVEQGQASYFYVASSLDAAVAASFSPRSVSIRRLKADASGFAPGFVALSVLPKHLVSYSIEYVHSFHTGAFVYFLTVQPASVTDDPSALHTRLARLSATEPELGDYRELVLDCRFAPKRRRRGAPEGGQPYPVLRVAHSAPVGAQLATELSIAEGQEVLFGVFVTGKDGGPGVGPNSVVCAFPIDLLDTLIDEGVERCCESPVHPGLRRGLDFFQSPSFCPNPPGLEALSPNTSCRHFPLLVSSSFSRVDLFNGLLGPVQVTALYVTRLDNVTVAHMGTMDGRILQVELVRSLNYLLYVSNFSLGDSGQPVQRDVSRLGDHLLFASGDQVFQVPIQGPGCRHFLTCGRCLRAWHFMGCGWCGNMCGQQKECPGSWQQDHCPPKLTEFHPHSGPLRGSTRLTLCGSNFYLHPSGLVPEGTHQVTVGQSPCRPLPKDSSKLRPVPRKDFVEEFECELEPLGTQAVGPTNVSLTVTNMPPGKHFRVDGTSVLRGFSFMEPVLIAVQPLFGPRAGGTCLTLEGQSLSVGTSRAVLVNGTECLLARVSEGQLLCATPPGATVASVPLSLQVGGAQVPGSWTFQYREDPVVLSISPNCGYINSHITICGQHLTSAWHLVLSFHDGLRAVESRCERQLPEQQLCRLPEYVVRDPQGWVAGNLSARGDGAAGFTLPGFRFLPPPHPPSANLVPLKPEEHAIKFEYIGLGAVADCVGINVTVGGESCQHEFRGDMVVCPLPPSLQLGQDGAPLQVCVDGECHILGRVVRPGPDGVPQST
T3 sequence (Q04912 25-1400): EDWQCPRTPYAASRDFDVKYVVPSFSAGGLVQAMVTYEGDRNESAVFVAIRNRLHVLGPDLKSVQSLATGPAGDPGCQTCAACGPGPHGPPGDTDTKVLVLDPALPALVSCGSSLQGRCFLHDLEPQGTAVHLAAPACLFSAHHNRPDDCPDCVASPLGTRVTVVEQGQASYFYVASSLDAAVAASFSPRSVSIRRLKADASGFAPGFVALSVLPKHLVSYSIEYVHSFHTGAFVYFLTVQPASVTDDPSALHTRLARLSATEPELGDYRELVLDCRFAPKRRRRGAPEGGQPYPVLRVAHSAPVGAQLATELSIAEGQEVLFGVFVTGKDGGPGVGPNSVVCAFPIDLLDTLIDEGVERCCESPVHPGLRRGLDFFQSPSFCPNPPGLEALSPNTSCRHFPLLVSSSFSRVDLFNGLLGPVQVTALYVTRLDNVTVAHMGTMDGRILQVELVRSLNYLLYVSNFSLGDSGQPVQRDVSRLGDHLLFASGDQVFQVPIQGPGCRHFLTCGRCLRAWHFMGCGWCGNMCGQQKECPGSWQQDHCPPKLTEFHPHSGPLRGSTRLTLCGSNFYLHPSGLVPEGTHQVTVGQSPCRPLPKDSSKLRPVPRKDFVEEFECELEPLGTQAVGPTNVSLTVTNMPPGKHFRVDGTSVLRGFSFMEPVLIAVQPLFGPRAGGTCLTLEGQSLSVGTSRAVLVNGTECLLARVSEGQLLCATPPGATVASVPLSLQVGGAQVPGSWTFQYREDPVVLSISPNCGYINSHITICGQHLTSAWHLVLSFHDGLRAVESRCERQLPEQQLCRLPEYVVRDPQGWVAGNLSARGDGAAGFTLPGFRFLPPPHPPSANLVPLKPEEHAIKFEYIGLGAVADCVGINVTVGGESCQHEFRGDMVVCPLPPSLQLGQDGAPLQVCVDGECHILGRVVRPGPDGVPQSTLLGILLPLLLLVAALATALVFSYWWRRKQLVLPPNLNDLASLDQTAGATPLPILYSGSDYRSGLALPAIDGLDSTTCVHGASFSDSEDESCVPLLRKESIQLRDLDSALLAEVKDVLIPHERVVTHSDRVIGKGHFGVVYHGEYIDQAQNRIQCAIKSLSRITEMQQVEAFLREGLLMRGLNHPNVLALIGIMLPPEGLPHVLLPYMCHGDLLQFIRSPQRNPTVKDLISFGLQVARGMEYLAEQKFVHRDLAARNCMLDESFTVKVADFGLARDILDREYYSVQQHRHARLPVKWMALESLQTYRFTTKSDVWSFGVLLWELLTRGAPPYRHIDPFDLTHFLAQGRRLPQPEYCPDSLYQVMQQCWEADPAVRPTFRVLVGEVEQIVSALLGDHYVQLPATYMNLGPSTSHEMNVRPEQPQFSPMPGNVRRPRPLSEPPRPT
T2 sequence (Q04912 25-1400): as above

B1: nanobody NGS00020 (VHH)
VHH: EVQLVESGGALVQAGDSLRVSCVASGRTFSRYAMGWFRQAPGKQREFVAAISWDGDSTSYANSLKGRFTISRDNAKNTGYLYMNSLIPEDTAVYYCAADRGRTTAWTYWGEGTLVTVSS
notes: majority-rule consensus of an NGS cluster; One of the 28 randomly selected NGS clusters; source: E. coli, crude periplasmic extract (synthetic DNA); not shown: FLAG3, C-terminal, kept
For the molecule B1, the binding result in assay [1] and in assay [2] was “no binding” throughout.

B2: nanobody NGS00009 (VHH)
VHH: EVQLVESGGGLVQAGDSLRLSCAASGRTFSTYALGWFRQAPGKEREFVAVISGRGGTTYYAGSVKGRLTISRDNAKNTVYLQMNSLKPEDTAVYYCAAGSDFGAVVDNRPDYWGQGTLVTVSS
notes: as for B1
For the molecule B2, in assay [1], the binding result was “binds”.

B3: nanobody 8A12 (VHH)
VHH: EVQLVESGGGLVQAGGSLRVSCAASGLTFSRYNMGWFRQAPGKERDFVAAISSSDGSILYENSVKGRFTISRDNAENTVYLQMNSLEPEDTGVYYCAGSIVMSTLARKYDYWGQGTLVTVSS
notes: From a llama immunised with rhRON; found by conventional screening and by NGS; source: E. coli, crude periplasmic extract; E. coli, purified; not shown: FLAG3, C-terminal, kept
The term IC50 denotes the concentration needed to halve the response being measured. In general, koff refers to the first-order rate constant of dissociation. What is called EC50 is the concentration giving half of the maximal effect. A low value points to greater potency. As to B3, in assay [3], the half-maximal inhibitory concentration (IC50) stood at 7 nM and the “maximum inhibition of MSP binding” value amounted to 96%. Moreover, the koff in assay [4] was found to be 0.0028 s⁻¹. In assay [5], the “IC50 (M) inhibition of ERK phosphorylation induced by 1 nM MSP through RON on T-47D cells; purified nanobody, HTRF phospho-ERK” value stood at 1.3e-08 M and the “maximum inhibition (efficacy) of MSP-induced ERK phosphorylation in T-47D cells” value is 100%. The same molecule yielded a concentration for a half-maximal effect (EC50) in assay [6] of 0.12 nM.

B4: nanobody 11F05 (VHH)
VHH: EVQLVESGGGSVQAGGSLRLSCAASGRYRMGWFRQAPGKEREFVAVISASGGSTYYADSVKGRFTIARDNAKTMVYLQMNSLKPEDTAVYYCAAKVNYYGDYDLAQNYDYWGQGTQVTVSS
notes: as for B3
For the molecule B4, in assay [3], the 50% inhibitory concentration (IC50) is 9.7 nM and the “maximum inhibition of MSP binding” value worked out at 98%. The off-rate constant (koff) in assay [4] was 0.00046 s⁻¹. In assay [5], the “IC50 (M) inhibition of ERK phosphorylation induced by 1 nM MSP through RON on T-47D cells; purified nanobody, HTRF phospho-ERK” value is 6e-09 M and the “maximum inhibition (efficacy) of MSP-induced ERK phosphorylation in T-47D cells” value is 100%. In addition, in assay [6], it took 0.053 nM to reach a half-maximal effect (EC50).

B5: nanobody NGS00003 (VHH)
VHH: EVQLVESGGGLVQPGGSLRLSCAASGFAFSRYWMYWVRQAPGKGLEWVSAISSSGSSTDYVDSVKGRFTVSRDNAKNTLYLQMNGLKSEDTAIYYCAKDTRQFIRSNYDNGGQGTLVTVSS
notes: as for B1
Regarding B5, the binding result in assay [1] and in assay [2] was “no binding” in each case.

B6: nanobody NGS00027 (VHH)
VHH: EVQLVESGGGLVQVGASLRLSCRASGGTFDDYAMGWFRQRPGEEREFVAVISWNGAMTYYLNHIKGRFTISRDNAKNTAYLQMNNLEPGDTAVYYCAAERTLGWGVNPEAYASWGQGTLVTVSS
notes: as for B1
Regarding B6, the binding result in assay [1] and in assay [2] was “no binding” each time.

Values taken from paper PMC5385344, “Large Diversity of Functional Nanobodies from a Camelid Immune Library Revealed by an Alternative Analysis of Next-Generation Sequencing Data” (Frontiers in Immunology, 2017).
